The results in this text go back to paper PMC7956748 (2021).

The target in experiment [1] is T1, transforming growth factor-beta 1 (TGF-β1) (UniProt P01137 279-390). Nature of the experiment: SPR. (SPR reads the build-up and loss of mass on a sensor chip optically.)
Experiment [2] has as its target T1, transforming growth factor-beta 1 …. The experiment in a line: SPR. This is another data set of the same source.

T1 sequence (P01137 279-390): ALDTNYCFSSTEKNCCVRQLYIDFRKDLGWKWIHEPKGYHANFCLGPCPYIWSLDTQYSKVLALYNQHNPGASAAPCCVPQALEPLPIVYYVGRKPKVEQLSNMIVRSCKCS

B1: thrombospondin-4 (TSP-4), recombinant full-length rat (natural protein)
chain: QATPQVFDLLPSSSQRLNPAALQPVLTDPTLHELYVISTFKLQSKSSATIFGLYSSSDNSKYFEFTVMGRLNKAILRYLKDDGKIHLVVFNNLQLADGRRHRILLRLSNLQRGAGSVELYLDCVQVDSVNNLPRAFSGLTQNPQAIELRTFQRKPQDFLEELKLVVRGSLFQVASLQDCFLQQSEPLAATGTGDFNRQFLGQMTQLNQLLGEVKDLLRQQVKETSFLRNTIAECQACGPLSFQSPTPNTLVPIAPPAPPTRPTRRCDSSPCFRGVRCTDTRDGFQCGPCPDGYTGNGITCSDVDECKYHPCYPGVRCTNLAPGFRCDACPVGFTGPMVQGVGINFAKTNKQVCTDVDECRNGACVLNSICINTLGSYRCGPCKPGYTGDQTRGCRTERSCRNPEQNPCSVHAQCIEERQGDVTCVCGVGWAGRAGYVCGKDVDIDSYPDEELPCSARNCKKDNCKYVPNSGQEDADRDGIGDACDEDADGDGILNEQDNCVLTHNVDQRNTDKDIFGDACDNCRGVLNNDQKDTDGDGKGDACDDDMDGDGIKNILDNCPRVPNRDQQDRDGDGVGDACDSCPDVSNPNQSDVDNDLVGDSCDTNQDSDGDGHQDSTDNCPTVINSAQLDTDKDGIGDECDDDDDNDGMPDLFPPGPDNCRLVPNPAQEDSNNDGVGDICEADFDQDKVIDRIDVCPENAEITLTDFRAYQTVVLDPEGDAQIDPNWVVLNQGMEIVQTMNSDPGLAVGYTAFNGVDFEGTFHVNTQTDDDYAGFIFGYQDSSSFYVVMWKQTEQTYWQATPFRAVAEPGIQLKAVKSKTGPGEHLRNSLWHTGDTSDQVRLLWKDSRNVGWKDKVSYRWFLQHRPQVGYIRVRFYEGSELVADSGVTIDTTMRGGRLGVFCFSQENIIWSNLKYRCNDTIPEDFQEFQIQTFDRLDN
With B1, in experiment [1], the koff (usually a measure of how fast the partners let go of each other) was 0.000889 s⁻¹. Further, the affinity in experiment [2], expressed as Kd, was 0.0063 µM.

B2: cartilage oligomeric matrix protein (COMP), recombinant full-length rat (natural protein)
chain: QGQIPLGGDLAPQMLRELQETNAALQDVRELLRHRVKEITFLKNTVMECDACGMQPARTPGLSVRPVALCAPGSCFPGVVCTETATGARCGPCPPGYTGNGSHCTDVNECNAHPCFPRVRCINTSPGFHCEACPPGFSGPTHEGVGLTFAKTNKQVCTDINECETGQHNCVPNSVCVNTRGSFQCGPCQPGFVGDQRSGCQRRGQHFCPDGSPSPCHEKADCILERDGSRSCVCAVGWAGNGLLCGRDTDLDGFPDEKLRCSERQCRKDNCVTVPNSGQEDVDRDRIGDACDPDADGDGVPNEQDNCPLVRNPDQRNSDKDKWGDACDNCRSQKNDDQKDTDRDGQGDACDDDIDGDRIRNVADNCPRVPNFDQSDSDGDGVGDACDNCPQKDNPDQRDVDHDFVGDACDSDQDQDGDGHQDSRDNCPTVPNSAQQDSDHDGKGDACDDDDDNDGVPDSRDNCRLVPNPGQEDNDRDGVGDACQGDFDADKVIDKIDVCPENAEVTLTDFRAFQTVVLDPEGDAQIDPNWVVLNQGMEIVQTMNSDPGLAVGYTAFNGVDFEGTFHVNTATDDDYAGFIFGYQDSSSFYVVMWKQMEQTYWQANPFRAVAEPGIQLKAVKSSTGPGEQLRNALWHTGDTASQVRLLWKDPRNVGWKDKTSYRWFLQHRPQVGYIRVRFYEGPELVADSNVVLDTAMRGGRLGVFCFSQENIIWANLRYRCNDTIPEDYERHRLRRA
With B2, in experiment [1], the koff amounted to 0.000392 s⁻¹. For the same molecule, the Kd (as a rule, a measure of binding affinity in units of concentration) in experiment [2] came to 0.0229 µM.
